Test results: the nanobody polyreactivity screen of Harvey et al. (2022)

Experiment: yeast display, Sf9 membrane polyspecificity reagent, FACS + sequencing; frameworks hold sequencing errors
Summary of the method: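 Galactose induction of a Saccharomyces cerevisiae BJ5465 synthetic nanobody display library ran 36–48 hours. The cells were then stained for 1 hour at 4 °C with 10% biotinylated, detergent-solubilized Sf9 membrane reagent, pulled down on streptavidin microbeads and FACS-sorted into low and high (top ~1%) gates on expression and reagent-binding fluorescence. Labels for polyreactivity follow the gate of origin.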

QVQHVESGGGLVQAGGSLRLSCAASGNTFLRYAMGWYIKAPGKERELVAAISRSGGSTYYADSVKGRFTISRDTAKNTVYLQMNSLKPEDTAVYYCAARRSSQPDKGYYYWGQGTQVTVSS
polyreactivity (PSR sort gate): high polyreactivity

QVQLVESGGGLVQAGGSLRLSCAASGSIFSFNAMGWYRQAPGKERELVAAITTSGGSTYADSVKGLFTISRDNAKNTVYLQMNSLKPEDTAVYYCAVVGEVEGYYWDDYWGQGTKVTVSS
polyreactivity (PSR sort gate): low polyreactivity

QVQLVESGGGLGQAGGSLRLSCAASGSIFPDYVMGWYRQAPGKARELVAAISRGGSTYYADSVKGRFTISRDNAKNTVYLQMNSLKPEDTAVYYCAADNPHWRYEYWGPGTQVTVSS
polyreactivity (PSR sort gate): high polyreactivity

QVQLVESGGGLVQAGGSLRLSCAASGLSFSVYAMGWYRQAPGKERELVAAITRNGGSTYYADSVKGRFTISRDTAKNTVYLQMNSLKPEDSAVYYCAAVASSKLYDYWGQGTQVTVSS
polyreactivity (PSR sort gate): low polyreactivity

QVQLVESGGGLVQAGGSLRLSCAASGRIFWGYAMGWYRQAPGKEREVVAAISWSGGSTYYADSVKGRFTISRDNAKNTVYLQMNSLKPEDTAVYYCAALRFQSYNYWGQGTQVTVSS
polyreactivity (PSR sort gate): high polyreactivity

QVQLVESGGGLVQAGGSLRLTCAASGFTFGPYDMGWSRQAPGKERELVAAITDSSGSTHYADSVKGRFTISRDNAKNTVYLQMNSLKPEDTAVYYCAAQLKSHSTYGHDYWGQGTQVTVSS
polyreactivity (PSR sort gate): low polyreactivity

QVQLQESGGGLVQAGGSLRLSCAASGSIFADVQMGWYRQAPGKELELVASINFRGTTTYYADSVKGRFTISRDNAKNTVYLQMSSLKPEDNAVYYCAVGRSEGGDFAYWGQGTHVTVSS
polyreactivity (PSR sort gate): low polyreactivity

QVQLVESGGGLVQAGGSLRLSCAASGRISKKYAMGWYRQAPGKERELVAAIRGSGGGTYYADSVKGRFTISRDNAKNTVYLQMNSLKPEDTAVYYCNAASRHSTAPITGYDSWGQGTQVTVSS
polyreactivity (PSR sort gate): high polyreactivity

QVQLVESGGGLVQAGGSLRLSCAASGSIFSGNAMGWYRQAPGKERELVAAISRNGGSTYYADSVKGRFTISRDNAMNTVYLQMISLKPEDTAVYYCAASWYRRKIYYSWGQGTQVTVSS
polyreactivity (PSR sort gate): high polyreactivity

QVQLVESGGGLVQAGGSLRLSSAASGSTFRYNAMGWYRQAPGKERELVAAITSTGDSTYYADSVKGRFTISRDNAKNTVYLQMNSLKPEDTAVYYCAARSYASPGWRYEYWGQGTQVTVSS
polyreactivity (PSR sort gate): low polyreactivity

QVQLVESGGGLVQAGGSLRLSCAASGFIIVRYAMGWYRQAPGKERELVAAITRSGGSTYYADSVKGRFTISRDNAKNTVYLQMNSLKPEDTAVYYCNAYRQGFTYARMDYWGQGTQVTVSS
polyreactivity (PSR sort gate): high polyreactivity

QVQLVESGGGLVQAGGSLRLSCAASGFTFFPYAMGWYRQAPGKERELVAGITYIGGSTYYADSVKGRFTISRDNAKNTVYLQMNSLKPEDTAVYYCNAGRIGGFDWGQGTQVTVSS
polyreactivity (PSR sort gate): low polyreactivity

QVQLVESGGGLVQAGGSLRLSCAASGFTFSGHTMGWSRQAPGKERELVATISRTGGITYYADSVKGRFTISRDNAKNTVLLQMNSLKPEDTAVYYCNRRYYYFVYPDDYWGQGTQVTVSS
polyreactivity (PSR sort gate): high polyreactivity

QVQLVESGGGLVQAGGSLRLSCAASGIIFAANTMGWYRQAPGKDREFVAAISKRGGTTYYADSVKGRFTISRDNAKNTVYLQMNSLKPEDSAVYYCNRRNGWSRGEYWGQGTQVTVSS
polyreactivity (PSR sort gate): high polyreactivity

QVQIVESGGGLVQAGGSLRLSCAASGRIFWAYAMGWYRQAPGKERELVAAITSGGSTYYADSVKGRFTISRDNAKNTVYLQMNRLKPDDTAVYYCAVGSNWVDDSPEDEYWGQGTQVTVSS
polyreactivity (PSR sort gate): low polyreactivity

QVQLVESGGGLVQAGGSLRLSCAASGRIFKRYDMGWYRQAPGKERELVAAINRSGGSTYYADSVKGRFTISRDNAKNTVYLQMNSLKPEDTAVYYCAARYRYDGRYDYWGQGTQVTVSS
polyreactivity (PSR sort gate): high polyreactivity

QVQLVESGGGLVQAGGSLRLSSAPSGSTIHTYTMGWYRQAPGKDRELVAGISRSGGTTYYADSVKGRFTISRDNAKNTVYLQMNSLKPEVTAVYDCNALSSKTDTYDYWGQGTQVTVSS
polyreactivity (PSR sort gate): high polyreactivity

QVQLVESGGGLVQAGGSLRLSCAASGFIFQPYAMGWYRQAPRKERELVAAITSRGGRTYYADSVKGRFTISRDNAKNTVYLQMNSLKPEDTAVYYCNGDIYASEYYYWGQGTQVTVSS
polyreactivity (PSR sort gate): low polyreactivity

QDQLVESGGGLVQAGGSLRLSCAASGRTFRRYTKGWYRQAPGKERELVAAISRGGSTNYADSVKGRFTISRDNAMNTFYLQMNSLKPEDTAVYYCNADYWYDWNSYDYWGQGTQVTVSS
polyreactivity (PSR sort gate): high polyreactivity

QVQLVESGGGLVQAGGSLRLSCAASGSTFYRNAMGWYRQAPGKEREFVADITLGGGSTYYADSVKGRFTISRDNAKNTVYLQMNSLTPEDTAVYYCAVVYWQLNYDYWGQGTQVTVSS
polyreactivity (PSR sort gate): low polyreactivity

QVQLQESRGGLVQAVRSLRLSCAASGTILYSLGMGWYRQAPGKRREFVASITRGTTTNYAESVKGRFTISRDNAKKTVYPQMNSLKAEDTGVSFCAGPPFGVSSYDYWGQGNQVTVSS
polyreactivity (PSR sort gate): low polyreactivity

QDQLVESGGGLDQAGGSLRLSCAASGNTFWPYAMGWYRQAPGKESEFVAAITFRGGSTYYADSVKGRFTISRDNAKNTVYLQMNSLKPEDTAVYYCNAERGVWSGYFGYDYWGQGTQVTVSS
polyreactivity (PSR sort gate): low polyreactivity

QVQLVESGGGLVQAGGSLRLSCAASGFIFLRYGMGWYRPAPGKERELVASIDSTGGSTYADSVKGRFTISRDNAKNTVYLQMNSLKPEDTAVDYCAAAYYIVSERDYWGQGTQVTVSS
polyreactivity (PSR sort gate): low polyreactivity

QVQLEESGGGLVQAGGSLRLSCAASGSTFQRYAIGWYRQAPGKERELVAAISYRAGRRYYADSVKGRFTISRDNAKNTVYLQMNSLKPEDTAVYYCAAKNQGYQYDYWGQGTQVTVSS
polyreactivity (PSR sort gate): high polyreactivity

QVQLVESGGGLVHAGGSLRLSCAASGSIFHFNAMGWYRQAPGKERELVARISIGGGSTYYADSVKGRFTISRDNAKNTVYFQMNSLKPEDTAVYSCAVDGSPRNKYDYWGQGTQVTVSS
polyreactivity (PSR sort gate): high polyreactivity

QVQLVESGGGLVQAGGSLRLSCAASGITFKRYAMGWYRPAPGKERELVAAITISAGSTYYADSVKGRFTLSRDNAKNTVYLQMNSLKPEDTAVYYCAAESYGSWYYYWGQGTQVTVSS
polyreactivity (PSR sort gate): high polyreactivity

QVQLVESGVVLVQAGGSLRLSCAASGYTFRVYTMGWYRQAPGKERELVAAISRRGSRTYYADSVKGRFTISRDYAKNTVYLQKNSLKPEDTAVYYCAAGIPYPDDYWGLGTQVTVSS
polyreactivity (PSR sort gate): high polyreactivity

QVQLVESGGGLVQAGGSLRLSCAASGRNLEYYAMGWYRQAPGQERELVATITSRGDTTHYADSVKGRFTISRDNAKNTVYLQMNSLKPEDTAVYYCAAAYVEYTPYRWYGDDYWGQGTQVTVSS
polyreactivity (PSR sort gate): low polyreactivity

QVQLVESGGGLVQAGGSLRLSCAASGRIFSVYAMGWYRQAPGKERELVASIRSRGSSTYYADSVKGRFTISRDNAKNTVYLQMNSLKPEDTAVYYCAVDVLTVGQSYDHWGQGTQVTVSS
polyreactivity (PSR sort gate): high polyreactivity

QVQLVESGGGLVQAGGSLRLSCAATGRTFQFNAMGRYRQAPGKERELVAAITSNGGSTNYADSVKGRFTISRDNAKNTVYVQMNSLKPEDTAVYYSAAPRFRYYYWDMDYWGQGTQVTVSS
polyreactivity (PSR sort gate): low polyreactivity

QVQLVESGGGLVQAGGSLRLSCAASGRIFSRYAMGWYRQAPGKERELVAAITWSVGSTYYADSVKGRFTISRDNAKNTVYLQMNSLKPEDTAVSYCAKLVRYYKPGYDYGGQGTQVTVSS
polyreactivity (PSR sort gate): low polyreactivity

QVQLVESGGGLVQAGGSLRLSCAASGFIFHRNAMGWYRQAPGKERELVAAITRSSTSTYYADSVKGRFTISRDNAKNTVYLQMNSLKPEDTAVYYCNARYPSADDWGQGTQVTVSS
polyreactivity (PSR sort gate): high polyreactivity

QVQLVESGGGLVQAGGSLRLRCAASGRTFWWNAMGWYRQAPGKERELVAGTYSRGGGTYYADSVKGRFTISRDNAKNRVYLQMNRLKAEDTAVYYCASQAPVYRYYYWGQGTQVTVSS
polyreactivity (PSR sort gate): high polyreactivity

QVQLVESGGGLVQAGGSLRLSCAASGRTFYVYAMGWYRQAPGKERELVAAITKNGGNTYYADSVKGRFTISRDNAKNTVYLQMNSLKPEDTAVYYCAADKQGFLISYTGYDYWGQGTQVTVSS
polyreactivity (PSR sort gate): low polyreactivity

QVQLVESRGGLVQAGGSLRLSCAASGRIFRYNAMGWDRQAPGKERELVAAITRSGGRTYYADSVKGRFTISRDNAKNTVYLQMNSLKPEDTAVYYCAADKYPSSPYVGDVDYWGQGTQVTVSS
polyreactivity (PSR sort gate): high polyreactivity

QVQLVESGGGLVQAGGSLRLSCAASGSTFSYYAMGWYRQAPGKERELVAAITSSGGSTYYADSVKGRFTISRDNAKNTVYLQMNSLKPEDTAVYYCNTAYHVPYDYWGQGTQVTVSS
polyreactivity (PSR sort gate): low polyreactivity

QVQLVESGGGLVQAGGSLRLSCAASGSIFDGYAMGWYRQAPGKERELVAAISSGGSTYYADSVKGRFTISRDNAKNTVYLQMNSLKPEDTAVYYCNRVRRRVSTSIYNYWGQGTQVTVSS
polyreactivity (PSR sort gate): high polyreactivity

QVQLVESGGGLVQAGGSLRLSCAASGSTFKYYAMGWYRQAPAKERELVAAISARTGSTYYADSVKGRFTISRDNAKNTVYLQMNRLKPEDTAVYYCNKLTWRGEVDYWGQGTQVTVSS
polyreactivity (PSR sort gate): high polyreactivity

QVQLVESGGGLVQAGGSLRLSCAASGSIFRINDMGWYRQAPGKERELVAAITFSGGSTYADSVKGRFTISRDNAKNTVNLQMNSLKPEDTAVYYCNADGAYWTDYYLYDYWGQGTQVTVSS
polyreactivity (PSR sort gate): low polyreactivity

QVQLVESGGGLVQAGGSLRLSCAASGFIVRNYAMGWYSQAPGKERELVASISRGTSTNYADSVKGRFTISRDNAKNTVYLQMNSLKPEDTAVYYCNKRFYYHPFDYWGQGTQVTVSS
polyreactivity (PSR sort gate): high polyreactivity

QVQLVESRGGLVQARGSLRLSCAASGRTFYPYAMGWYSPAPGKERELVATITGSGTTTYYADSVKGRFTLSRDNGNNTVYLQMNRRKPEDTAVYYSAADVWEVVTPYGTIDDDYWRQGTQVTVSS
polyreactivity (PSR sort gate): high polyreactivity

QLQLVESGGGLVQAGGSLRLSCASSGSIFLFNAMGWYRQAAGQERELVAAITSSGTRTYYADSVKGRFTISRDNAKNTVYLQMNSLKPEDTAVYYCNAVGPVDSYHRYYYWGQGTQGTVSS
polyreactivity (PSR sort gate): low polyreactivity

QVQLVESGGGLVQAGGSLRLSCAASGFTFDAYTMGWYSQAPGKERELVAAITWSGGRTYYADSVKGRCTISRDNAKTTVYLQLNSLKPEDTALYNCAADSPTSLYEYWGQGTQVTVSS
polyreactivity (PSR sort gate): high polyreactivity
